Kd, koff and kon data for two molecules are collected here from publication PMC13140594, “Characterization of high affinity IgM and IgG monoclonal antibodies against norovirus variants GII.4 and GII.17” (Protein Science : A Publication of the Protein Society, 2026).

Holding throughout (details): both partners purified
Assay [1] addresses T1, norovirus GII.17 P‐domain (Norovirus GII.17, GenBank AKI30060 …, strain).
T1 construct: Cloned into a modified pMAL-c6T vector; also called P‐domain of GII.17 strain; norovirus P‐domain GII.17 strain; source: E. coli BL21 (DE3), purified (Ni-NTA Agarose, SEC Superdex 75)
T1 chain: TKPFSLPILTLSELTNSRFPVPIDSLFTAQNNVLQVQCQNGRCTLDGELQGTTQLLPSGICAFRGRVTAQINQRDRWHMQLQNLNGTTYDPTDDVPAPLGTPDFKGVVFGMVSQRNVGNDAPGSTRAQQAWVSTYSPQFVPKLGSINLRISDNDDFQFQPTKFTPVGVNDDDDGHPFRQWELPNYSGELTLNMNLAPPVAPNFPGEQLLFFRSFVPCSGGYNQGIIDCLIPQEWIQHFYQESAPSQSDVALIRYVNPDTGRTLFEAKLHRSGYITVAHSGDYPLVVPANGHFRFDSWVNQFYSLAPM
Nature of the assay: SPR; Biacore 8K; antibody immobilised, P-domain as analyte; 1:1 kinetic model.

Assay [2] has as its target T1, norovirus GII.17 P‐domain. Description: SPR; Biacore 8K; P-domain immobilised on CM5 by amine coupling, antibody as analyte; PBST, 30 uL/min, 180 s association, 600 s dissociation; 1:1 kinetic model. A general note: Surface plasmon resonance follows binding to a sensor surface in real time, without labels.
Assay [3] concerns the target T1, norovirus GII.17 P‐domain. Description: SPR; GII.17 P-domain immobilised on CM5 at 138 r.u., antibody as analyte; PBST; 1:1 kinetic model.
In assay [4] the target is T1, norovirus GII.17 P‐domain. Nature of the assay: SPR; GII.17 P-domain immobilised on CM5 at 458 r.u., antibody as analyte; PBST; 1:1 kinetic model.
The target in assay [5] is T1, norovirus GII.17 P‐domain. Description: SPR; GII.17 P-domain immobilised on CM5 at 922 r.u., antibody as analyte; PBST; 1:1 kinetic model.
Assay [6] has as its target T1, norovirus GII.17 P‐domain. Description: SPR; GII.17 P-domain immobilised on CM5 at 1059 r.u., antibody as analyte; PBST; 1:1 kinetic model.
The target of assay [7] is T1, norovirus GII.17 P‐domain. Nature of the assay: SPR; GII.17 P-domain immobilised on CM5 at 3830 r.u., antibody as analyte; PBST; 1:1 kinetic model.
Assay [8] addresses T1, norovirus GII.17 P‐domain. Description: SPR; GII.17 P-domain immobilised on CM5 at 4577 r.u., antibody as analyte; PBST; 1:1 kinetic model.

What is called Kd is the free concentration of one partner at which half of the binding sites on the other are occupied at equilibrium, for simple one-to-one binding. A higher Kd goes with lower affinity. In general, koff refers to a measure of how fast the partners let go of each other. Lower therefore signals slow dissociation. A word on the kon: it is the second-order rate constant of association.

B1: 14C2 IgG (antibody, V domains shown)
VH: QAYLQQSGAELMKPGASMRISCKATGYTFSNYWIEWVKQRPGHGLEWIGEILPGGGGTDYNEKFKGKATFTADTSSNTAYMQLSSLTSEDSAVYYCARSTFYGYDGGLYYFPMDYWGQGTSVTVSP
VL: DIVMTQSPAIMSASPGEKVTMTCSTNSSISYMHWYQQKPGTSPKRWIYDTSKLASGVPARFSGSGSGTSYSLTISSMEAEDAATYYCHQRSSYPWTFGGGTKLEIK
notes: variable domain of the heavy chain of 14C2; light chain of 14C2; Mouse IgG2b; also called IgG antibody 14C2; source: mouse hybridoma supernatant, purified (HiTrap Protein G HP, SEC Superdex 200); copies: 2 + 2
B1: in assay [1], the Kd stood at 1.55 nM, the koff was 0.000129 s⁻¹ and the kon worked out at 82900 M⁻¹ s⁻¹. For the same molecule, in assay [2], the Kd came to 0.000921 nM, the koff is 1.07e-07 s⁻¹ and the kon amounted to 116000 M⁻¹ s⁻¹.

B2: 1‐arm IgG (Fab region of IgG antibody 14C2) (Fab, V domains shown)
VH: QAYLQQSGAELMKPGASMRISCKATGYTFSNYWIEWVKQRPGHGLEWIGEILPGGGGTDYNEKFKGKATFTADTSSNTAYMQLSSLTSEDSAVYYCARSTFYGYDGGLYYFPMDYWGQGTSVTVSP
VL: DIVMTQSPAIMSASPGEKVTMTCSTNSSISYMHWYQQKPGTSPKRWIYDTSKLASGVPARFSGSGSGTSYSLTISSMEAEDAATYYCHQRSSYPWTFGGGTKLEIK
notes: Fab region of the heavy chain of 14C2; light chain of 14C2; gene codon-optimised for mammalian cells; also called 14C2 Fab; source: Expi293 cells, purified (Ni-NTA Agarose, SEC Superdex 75); not shown: His tag (inferred from the Ni-NTA purification)
Take B2: the Kd came to 170 nM in assay [3]; 241 nM in assay [4]; 281 nM in assay [5]; 204 nM in assay [6]; 135 nM in assay [7]; 167 nM in assay [8]. Moreover, the koff in assay [3] worked out at 0.0025 s⁻¹; in assay [4], 0.00246 s⁻¹; in assay [5] it was 0.0024 s⁻¹; in assay [6], 0.00297 s⁻¹; in assay [7], 0.0034 s⁻¹; in assay [8] it was 0.0026 s⁻¹. In addition, the kon was 14700 M⁻¹ s⁻¹ in assay [3]; 10200 M⁻¹ s⁻¹ in assay [4]; 8550 M⁻¹ s⁻¹ in assay [5]; 14600 M⁻¹ s⁻¹ in assay [6]; 25100 M⁻¹ s⁻¹ in assay [7]; 15600 M⁻¹ s⁻¹ in assay [8].
